B1: scFv; the commonest letter at each place (parent)
chain 1: EVKLDETGGGLVQPGRPMKLSCVASGFTFSDYWMNWVRQSPEKGLEWVAQIRNKPYNYETYYSDSVKGRFTISRDDSKSSVYLQMNNLRVEDMGIYYCTGSYYGMDYWGQGTSVTVS
chain 2: DVVMTQTPLSLPVSLGDQASISCRSSQSLVHSNGNTYLRWYLQKPGQSPKVLIYKVSNRFSGVPDRFSGSGSGTDFTLKISRVEAEDLGVYFCSQSTHVPWTFGGGTKLEIK

The data set “fluorescein” covers variants of B1. In words: Kd (Tite-Seq). The note with it: with fluorescein; format: scFv 4-4-20, heavy + light.
In data set [1] the parent is B1. In words: yeast surface expression (ratio to wild type); higher = more expressed. Conditions: format: scFv 4-4-20, heavy + light.

Data on 58 variants can be found in the FLAb antibody collection (doi:10.7554/elife.23156).

One may read the Kd as a measure of binding affinity in units of concentration. As to chain 1 S30K W36E, the Kd with fluorescein is not below 10 µM. The yeast surface expression in data set [1] worked out at 1.31.

Turning to chain 1 M105Y W108N, the Kd in the data set with fluorescein is not below 10 µM. For the same variant, the yeast surface expression in data set [1] was found to be 0.301.

As for chain 1 M105Y W108R, the dissociation constant (Kd) with fluorescein is not below 10 µM. Besides, the yeast surface expression in data set [1] turned out to be 0.286.

On to chain 1 S30I W33Y V37P, for which the Kd with fluorescein was 7.33 µM. In addition, the yeast surface expression in data set [1] was found to be 0.0571.

For the variant chain 1 S30R Y32W, the Kd with fluorescein was not below 10 µM. Besides, the yeast surface expression in data set [1] is 0.811.

For chain 1 S30R Y32Q, the Kd in the data set with fluorescein is not below 10 µM. Also, the yeast surface expression in data set [1] was determined as 1.13.

Turning to chain 1 S30I W36P V37E, the Kd with fluorescein is not below 10 µM. Moreover, the yeast surface expression in data set [1] stood at 0.93.

Turning to chain 1 S30N W33M, the Kd with fluorescein was not below 10 µM. Also, the yeast surface expression in data set [1] stood at 0.879.

Take chain 1 S30N W33D: the Kd in the data set with fluorescein is not below 10 µM. In addition, the yeast surface expression in data set [1] worked out at 1.05.

As for chain 1 S30I D31H W33C, in the data set with fluorescein, the dissociation constant (Kd) was not below 10 µM. Moreover, the yeast surface expression in data set [1] amounted to 0.449.

Turning to chain 1 S30E M34W N35M, the Kd in the data set with fluorescein is not below 10 µM. Further, the yeast surface expression in data set [1] is 0.493.

On to chain 1 S30Q D31H, for which the Kd with fluorescein amounted to 0.00158 µM. For the same variant, the yeast surface expression in data set [1] amounted to 0.881.

Take chain 1 N35R W36R: in the data set with fluorescein, the Kd is not below 10 µM. Also, the yeast surface expression in data set [1] is 0.425.

With chain 1 N35R W36K, the Kd with fluorescein is not below 10 µM. Moreover, the yeast surface expression in data set [1] is 2.76.

chain 1 N35R W36P: the dissociation constant Kd with fluorescein was not below 10 µM. Further, the yeast surface expression in data set [1] came out at 0.809.

Regarding chain 1 S30F N35T W36P, in the data set with fluorescein, the dissociation constant Kd was not below 10 µM. Moreover, the yeast surface expression in data set [1] was determined as 1.41.

Consider chain 1 S30P D31S N35P, for which the Kd in the data set with fluorescein was not below 10 µM. In addition, in data set [1], the yeast surface expression worked out at 0.757.

Consider chain 1 S30P W33Q W36F, for which the dissociation constant Kd with fluorescein was not below 10 µM. For the same variant, in data set [1], the yeast surface expression turned out to be 0.838.

As for chain 1 N35L V37P, the Kd in the data set with fluorescein was not below 10 µM. In addition, the yeast surface expression in data set [1] came to 0.67.

For the variant chain 1 N35P W36V, the Kd with fluorescein was found to be 7.33 µM. Moreover, the yeast surface expression in data set [1] came out at 1.08.

Take chain 1 N35P W36T: in the data set with fluorescein, the Kd was not below 10 µM. Also, the yeast surface expression in data set [1] was found to be 0.338.

On to chain 1 S30L N35T, for which the Kd in the data set with fluorescein is not below 10 µM. Besides, the yeast surface expression in data set [1] came to 0.699.

For chain 1 S30N Y32S, the Kd with fluorescein was 0.0146 µM. In addition, the yeast surface expression in data set [1] came to 1.14.

Turning to chain 1 S30A N35Y, the Kd in the data set with fluorescein is not below 10 µM. Besides, the yeast surface expression in data set [1] was 0.655.

For the variant chain 1 S30N W36D, in the data set with fluorescein, the Kd is not below 10 µM. In addition, in data set [1], the yeast surface expression stood at 0.393.

chain 1 S30N W36C: in the data set with fluorescein, the Kd is not below 10 µM. The yeast surface expression in data set [1] was 0.445.

With chain 1 S30N W36N, in the data set with fluorescein, the Kd is not below 10 µM. Besides, in data set [1], the yeast surface expression amounted to 0.265.

chain 1 S30H W36F: the Kd with fluorescein stood at 0.004 µM. In data set [1], the yeast surface expression was determined as 0.728.

As to chain 1 S30H W36M, the Kd in the data set with fluorescein was 2.34 µM. Also, the yeast surface expression in data set [1] was determined as 0.564.

Turning to chain 1 S30Q N35K, the Kd with fluorescein was not below 10 µM. In addition, the yeast surface expression in data set [1] amounted to 0.304.

As for chain 1 S30H W33A, the dissociation constant (Kd) with fluorescein was not below 10 µM. Further, in data set [1], the yeast surface expression amounted to 0.733.

Turning to chain 1 S30H W33C, in the data set with fluorescein, the Kd was not below 10 µM. Further, the yeast surface expression in data set [1] was determined as 0.61.

Take chain 1 N35C W36F: in the data set with fluorescein, the equilibrium dissociation constant (Kd) is not below 10 µM. Moreover, the yeast surface expression in data set [1] was found to be 0.644.

On to chain 1 N35S V37L, for which, in the data set with fluorescein, the Kd was not below 10 µM. Moreover, the yeast surface expression in data set [1] was determined as 0.839.

On to chain 1 N35S V37E, for which the dissociation constant Kd with fluorescein is not below 10 µM. For the same variant, the yeast surface expression in data set [1] came out at 0.574.

Consider chain 1 S30F Y32Q, for which the dissociation constant (Kd) in the data set with fluorescein is not below 10 µM. In data set [1], the yeast surface expression was 0.653.

chain 1 S30F Y32H: the dissociation constant Kd with fluorescein is 0.0507 µM. In addition, the yeast surface expression in data set [1] was found to be 0.679.

For chain 1 S30I M34P, in the data set with fluorescein, the Kd was not below 10 µM. Moreover, the yeast surface expression in data set [1] stood at 0.36.

With chain 1 S30I M34N, the Kd with fluorescein is not below 10 µM. In addition, in data set [1], the yeast surface expression worked out at 0.512.

chain 1 S30I M34V: the dissociation constant (Kd) in the data set with fluorescein is 0.0113 µM. The yeast surface expression in data set [1] was 0.753.

As for chain 1 M105Y D106A, in the data set with fluorescein, the Kd was not below 10 µM. Further, in data set [1], the yeast surface expression came out at 0.432.

Consider chain 1 S30I D31T W36P, for which the Kd in the data set with fluorescein is not below 10 µM. Further, the yeast surface expression in data set [1] turned out to be 0.928.

Turning to chain 1 S30H M34F, the Kd with fluorescein is 0.0015 µM. In addition, the yeast surface expression in data set [1] amounted to 0.945.

With chain 1 S30H M34C, the Kd with fluorescein amounted to 6.96 µM. Further, the yeast surface expression in data set [1] worked out at 0.623.

Regarding chain 1 S30M N35M, the Kd with fluorescein was not below 10 µM. In addition, the yeast surface expression in data set [1] stood at 0.654.

As to chain 1 N35F V37A, the Kd with fluorescein is not below 10 µM. Also, the yeast surface expression in data set [1] came out at 0.871.

Turning to chain 1 N35F V37S, the Kd in the data set with fluorescein is not below 10 µM. In addition, the yeast surface expression in data set [1] turned out to be 0.884.

Take chain 1 N35F V37D: the Kd in the data set with fluorescein was not below 10 µM. The yeast surface expression in data set [1] amounted to 0.704.

With chain 1 N35T V37P, the Kd with fluorescein is not below 10 µM. Moreover, the yeast surface expression in data set [1] came out at 0.726.

Consider chain 1 S30H V37F, for which the Kd with fluorescein turned out to be 0.0562 µM. In addition, the yeast surface expression in data set [1] was 0.754.

For chain 1 N35G V37K, in the data set with fluorescein, the Kd is not below 10 µM. Further, the yeast surface expression in data set [1] amounted to 0.46.

As to chain 1 S30H D31S N35P, the Kd with fluorescein was not below 10 µM. Further, the yeast surface expression in data set [1] was 0.391.

chain 1 S30R D31N W36A: the Kd with fluorescein is not below 10 µM. In addition, the yeast surface expression in data set [1] was determined as 0.32.

With chain 1 S30N N35W, the Kd with fluorescein was not below 10 µM. In addition, in data set [1], the yeast surface expression is 0.529.

In the case of chain 1 S30N N35E, in the data set with fluorescein, the Kd is not below 10 µM. Further, in data set [1], the yeast surface expression turned out to be 0.697.

As to chain 1 S30N N35T, in the data set with fluorescein, the Kd was not below 10 µM. Besides, the yeast surface expression in data set [1] was 0.803.

As for chain 1 S30Q Y32V, in the data set with fluorescein, the Kd was not below 10 µM. In addition, in data set [1], the yeast surface expression worked out at 0.923.

In the case of chain 1 S30C W36G, the Kd in the data set with fluorescein worked out at 0.021 µM. Moreover, the yeast surface expression in data set [1] was 0.208.
